# Source: patent publication US20200262877A1, “ION CHANNEL-BINDING PEPTIDES AND METHODS OF USE THEREOF” (priority 2017, published 2020)
# Where “and” joins values, the source holds several entries; their conditions need not be identical. Equal entries are not always repeated. Structures can show the parent of a compound that is named as a salt.
# Tests used:
# Kv2.1 = target: T1, Kv2.1 (Homo sapiens, UniProt Q14721); experiment: cell-based
# T1 construct: host or cells: HEK293 or CHO
# Method: (§1) This example describes a method for assaying ion channel activity in cells.
# (§2) Peptides were screened in duplicate at final concentrations of 20 μM and 200 nM, as determined by amino acid analysis, and diluted into HEPES buffered physiological saline (HBPS). HEK293 or CHO cells from the American Type Culture Collection (ATCC) were transfected with the appropriate ion channel before use. HEK293 cells were grown in Dulbecco's Modified Eagle Medium/Nutrient Mixture F-12, and CHO cells were cultured in Ham's F-12 media. All cultures were supplemented with 10% fetal bovine serum, 100 U/ml penicillin G, 100 μg/ml streptomycin sulfate, and the appropriate selection antibiotics. Prior to use, cells were washed twice with Hank's Balanced Salt Solution, and treated with Accutase cell detachment solution (Sigma-Aldrich). Cells were then washed. Peptides and controls were incubated with cells for at least five minutes.
# (§3) Percent inhibition was defined as: (1-(Ipeptide/Icontrol))×100%).
# (§4) Percent values were calculated using the following formula: % activation=(IPeptide/Icontrol)×100%, where IPeptide is the current produced by co-application a peptide with agonist, and Icontrol refers to the current produced by stimulation in control. Control used for each ion channel is the reference compound matched to a particular channel, as illustrated in TABLE 10 below.
# α4β2 = target: T2, α4β2 (Homo sapiens, UniProt P17787+P43681); experiment: Ion channel panel (IonWorks Barracuda): α4β2; format: cell-based
# T2 construct: host or cells: HEK293 or CHO
# T2 sequence (P43681 29-627): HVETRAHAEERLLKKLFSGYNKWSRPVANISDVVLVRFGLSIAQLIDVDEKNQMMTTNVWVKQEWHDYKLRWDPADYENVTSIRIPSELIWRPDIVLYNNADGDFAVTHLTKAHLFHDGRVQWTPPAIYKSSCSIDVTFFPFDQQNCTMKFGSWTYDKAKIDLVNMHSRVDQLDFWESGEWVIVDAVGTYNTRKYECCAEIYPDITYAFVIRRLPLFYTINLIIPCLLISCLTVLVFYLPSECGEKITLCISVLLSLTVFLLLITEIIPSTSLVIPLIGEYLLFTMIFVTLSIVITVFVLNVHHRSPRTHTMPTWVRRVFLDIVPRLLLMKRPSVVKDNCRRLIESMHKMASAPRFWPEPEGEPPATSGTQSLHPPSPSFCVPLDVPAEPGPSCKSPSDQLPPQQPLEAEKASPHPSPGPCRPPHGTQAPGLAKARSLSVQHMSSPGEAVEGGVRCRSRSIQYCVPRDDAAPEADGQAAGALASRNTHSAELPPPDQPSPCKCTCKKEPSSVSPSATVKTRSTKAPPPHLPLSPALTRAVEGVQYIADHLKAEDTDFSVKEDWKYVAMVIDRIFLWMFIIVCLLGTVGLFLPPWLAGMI
# T2 sequence (P17787 26-502): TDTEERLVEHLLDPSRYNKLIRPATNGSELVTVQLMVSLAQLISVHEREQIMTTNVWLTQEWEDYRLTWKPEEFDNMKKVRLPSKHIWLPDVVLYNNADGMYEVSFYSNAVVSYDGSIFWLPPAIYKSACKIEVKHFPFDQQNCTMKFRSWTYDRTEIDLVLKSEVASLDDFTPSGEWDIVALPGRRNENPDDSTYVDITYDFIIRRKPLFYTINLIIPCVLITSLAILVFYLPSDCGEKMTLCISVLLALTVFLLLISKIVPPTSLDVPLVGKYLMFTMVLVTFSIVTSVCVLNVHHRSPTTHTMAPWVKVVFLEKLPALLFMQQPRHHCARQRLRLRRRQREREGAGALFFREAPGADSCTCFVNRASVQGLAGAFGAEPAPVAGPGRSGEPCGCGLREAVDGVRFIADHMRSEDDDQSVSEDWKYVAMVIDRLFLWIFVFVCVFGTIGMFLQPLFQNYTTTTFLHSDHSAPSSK
# Method: as §1, §2, §3, §4
# 5HT3a = target: T3, 5HT3a (Homo sapiens, UniProt P46098); experiment: Ion channel panel (IonWorks Barracuda): 5HT3a; format: cell-based
# T3 construct: host or cells: HEK293 or CHO
# T3 sequence (P46098 whole entry, looked up): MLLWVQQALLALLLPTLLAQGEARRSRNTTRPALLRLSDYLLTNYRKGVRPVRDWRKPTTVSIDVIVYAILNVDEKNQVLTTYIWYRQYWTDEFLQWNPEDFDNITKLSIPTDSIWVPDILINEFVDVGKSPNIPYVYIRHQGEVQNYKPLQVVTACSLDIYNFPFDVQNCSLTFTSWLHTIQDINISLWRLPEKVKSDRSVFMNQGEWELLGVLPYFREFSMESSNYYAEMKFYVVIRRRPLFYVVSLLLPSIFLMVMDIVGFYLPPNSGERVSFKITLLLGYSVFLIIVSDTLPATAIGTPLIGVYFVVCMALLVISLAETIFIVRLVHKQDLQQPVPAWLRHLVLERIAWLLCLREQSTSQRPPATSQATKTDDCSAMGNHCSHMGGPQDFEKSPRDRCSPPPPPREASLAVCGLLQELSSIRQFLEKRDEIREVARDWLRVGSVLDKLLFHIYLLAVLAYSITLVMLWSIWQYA
# Method: as §1, §2, §3, §4
# α3β4 = target: T4, α3β4 (Homo sapiens, UniProt P30926+P32297); experiment: Ion channel panel (IonWorks Barracuda): α3β4; format: cell-based; conditions: 100% = no change, <100% = inhibition
# T4 construct: host or cells: HEK293 or CHO
# Method: as §1, §2, §3, §4
# Cav2.1 = target: T5, Cav2.1 (Homo sapiens, UniProt O00555); experiment: cell-based
# T5 construct: host or cells: HEK293 or CHO
# Method: as §1, §2, §3, §4
# Cav2.2 = target: T6, Cav2.2 (Homo sapiens, UniProt Q00975); experiment: cell-based
# T6 construct: host or cells: HEK293 or CHO
# Method: as §1, §2, §3, §4
# GABA = experiment: Ion channel panel (IonWorks Barracuda): GABA; format: cell-based
# Method: as §1, §2, §3, §4
# Nav1.5 = Nav1.5 (Homo sapiens, UniProt Q14524); experiment: in vitro; conditions: 100% = no change; for Activity of Nav1.5 with peptide, expressed as a percentage of the reference compound: peptide at 0.2 μM; for Activity of Nav1.5 with peptide (percentage of the reference compound): peptide at 20 μM
# Method: as §1, §2, §3, §4
# hERG = hERG (Homo sapiens, UniProt Q12809); experiment: in vitro; conditions: 100% = no change, <100% = inhibition
# Method: as §1, §2, §3, §4
# Kir2.1 = target: T7, Kir2.1 (Homo sapiens, UniProt P63252); experiment: Ion channel panel (IonWorks Barracuda): Kir2.1; format: cell-based
# T7 construct: host or cells: HEK293 or CHO
# T7 sequence (P63252 whole entry): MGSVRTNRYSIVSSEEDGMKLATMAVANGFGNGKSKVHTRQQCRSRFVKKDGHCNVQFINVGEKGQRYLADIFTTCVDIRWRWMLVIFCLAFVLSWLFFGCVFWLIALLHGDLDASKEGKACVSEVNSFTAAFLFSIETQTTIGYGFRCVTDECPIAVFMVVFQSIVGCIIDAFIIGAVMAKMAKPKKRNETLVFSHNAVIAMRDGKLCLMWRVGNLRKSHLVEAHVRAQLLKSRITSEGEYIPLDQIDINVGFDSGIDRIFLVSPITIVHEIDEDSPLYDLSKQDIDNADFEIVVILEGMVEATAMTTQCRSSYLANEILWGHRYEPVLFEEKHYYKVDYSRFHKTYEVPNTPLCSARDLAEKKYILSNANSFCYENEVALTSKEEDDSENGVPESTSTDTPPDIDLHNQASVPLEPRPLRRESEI
# Method: as §1, §2, §3, §4
# Kv1.1 = target: T8, Kv1.1 (Homo sapiens, UniProt Q09470); experiment: cell-based; format: cell-based; conditions: 100% = no change, <100% = inhibition
# T8 construct: host or cells: HEK293 or CHO
# T8 sequence (Q09470 whole entry): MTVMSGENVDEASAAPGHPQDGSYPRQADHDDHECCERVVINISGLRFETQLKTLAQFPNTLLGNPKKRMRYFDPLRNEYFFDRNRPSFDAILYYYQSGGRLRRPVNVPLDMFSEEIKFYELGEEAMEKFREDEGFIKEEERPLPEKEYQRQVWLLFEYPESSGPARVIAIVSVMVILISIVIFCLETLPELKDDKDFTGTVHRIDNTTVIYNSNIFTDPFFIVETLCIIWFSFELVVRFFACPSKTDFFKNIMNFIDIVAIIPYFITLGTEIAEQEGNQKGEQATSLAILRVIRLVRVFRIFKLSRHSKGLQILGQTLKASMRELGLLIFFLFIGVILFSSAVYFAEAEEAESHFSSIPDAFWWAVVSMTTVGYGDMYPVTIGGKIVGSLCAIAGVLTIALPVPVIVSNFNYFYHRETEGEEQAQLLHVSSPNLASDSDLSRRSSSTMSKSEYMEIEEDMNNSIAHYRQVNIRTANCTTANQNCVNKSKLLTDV
# Method: as §1, §2, §3, §4
# Kv1.2 = target: T9, Kv1.2 (Homo sapiens, UniProt P16389); experiment: cell-based; format: cell-based; conditions: 100% = no change, <100% = inhibition
# T9 construct: host or cells: HEK293 or CHO
# T9 sequence (P16389 whole entry): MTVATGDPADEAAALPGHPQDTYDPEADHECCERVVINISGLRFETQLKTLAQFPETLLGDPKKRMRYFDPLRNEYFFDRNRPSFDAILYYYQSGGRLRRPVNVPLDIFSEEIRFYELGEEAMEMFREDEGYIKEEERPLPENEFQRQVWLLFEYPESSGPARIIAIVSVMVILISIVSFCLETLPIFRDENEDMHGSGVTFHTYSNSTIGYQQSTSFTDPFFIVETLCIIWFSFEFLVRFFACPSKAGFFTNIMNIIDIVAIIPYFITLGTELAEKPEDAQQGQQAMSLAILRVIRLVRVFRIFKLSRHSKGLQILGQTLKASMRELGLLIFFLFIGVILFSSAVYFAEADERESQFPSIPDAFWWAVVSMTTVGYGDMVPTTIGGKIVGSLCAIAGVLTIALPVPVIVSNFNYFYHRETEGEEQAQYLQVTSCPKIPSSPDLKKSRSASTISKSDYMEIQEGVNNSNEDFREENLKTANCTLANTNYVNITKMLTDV
# Method: as §1, §2, §3, §4
# Kv1.3 = target: T10, Kv1.3 (Homo sapiens, UniProt P22001); experiment: cell-based; format: cell-based; conditions: for Kv1.3 inhibition: 0.2 or 20 μM, FIG. 2
# T10 construct: host or cells: HEK293 or CHO
# T10 sequence (P22001 whole entry): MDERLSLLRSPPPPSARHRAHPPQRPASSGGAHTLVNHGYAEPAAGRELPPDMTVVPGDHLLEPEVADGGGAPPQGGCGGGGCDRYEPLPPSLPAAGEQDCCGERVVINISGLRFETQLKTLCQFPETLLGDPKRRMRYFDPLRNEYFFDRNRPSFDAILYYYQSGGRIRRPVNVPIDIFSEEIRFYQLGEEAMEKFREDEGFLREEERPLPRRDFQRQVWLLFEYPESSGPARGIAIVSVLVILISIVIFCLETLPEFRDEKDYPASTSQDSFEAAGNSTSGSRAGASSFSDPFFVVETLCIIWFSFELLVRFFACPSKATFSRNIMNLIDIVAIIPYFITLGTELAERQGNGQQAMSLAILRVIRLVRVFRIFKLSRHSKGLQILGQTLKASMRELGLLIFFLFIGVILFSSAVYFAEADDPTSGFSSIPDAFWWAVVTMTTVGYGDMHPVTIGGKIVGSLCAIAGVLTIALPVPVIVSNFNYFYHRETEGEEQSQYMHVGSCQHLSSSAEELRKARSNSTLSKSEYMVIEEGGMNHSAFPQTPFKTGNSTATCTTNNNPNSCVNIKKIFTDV
# Method: as §1, §2, §3, §4
# Nav1.7 = target: T11, Nav1.7 (Homo sapiens, UniProt Q15858); experiment: cell-based; format: cell-based; conditions: for Activity of Nav1.7 with peptide, expressed as a percentage of the reference compound: peptide at 0.2 μM; for Activity of Nav1.7 with peptide, expressed as a percentage of the reference compound / Activity of Nav1.7 with peptide (percentage of the reference compound): 100% = no change; for Activity of Nav1.7 with peptide (percentage of the reference compound): peptide at 20 μM
# T11 construct: host or cells: HEK293 or CHO
# Method: as §1
# as §2, with “Peptides were screened in duplicate at final concentrations of 20 μM and 200 nM, as determined by amino acid analysis, and diluted into HEPES buffered physiological saline (HBPS).” left out
# as §3, §4
# NR2A = target: T12, NR2A (Homo sapiens, UniProt Q12879); experiment: Ion channel panel (IonWorks Barracuda): NR2A; format: cell-based; conditions: 100% = no change, <100% = inhibition
# T12 construct: host or cells: HEK293 or CHO
# Method: as §1, §2, §3, §4
# NR2B = target: T13, NR2B (Homo sapiens, UniProt Q13224); experiment: Ion channel panel (IonWorks Barracuda): NR2B; format: cell-based; conditions: 100% = no change, <100% = inhibition
# T13 construct: host or cells: HEK293 or CHO
# Method: as §1, §2, §3, §4
# TRPA1 = target: T14, TRPA1 (Homo sapiens, UniProt O75762); experiment: Ion channel panel (IonWorks Barracuda): TRPA1; format: cell-based; conditions: 100% = no change, <100% = inhibition
# T14 construct: host or cells: HEK293 or CHO
# Method: as §1, §2, §3, §4
# TRPV1 = target: T15, TRPV1 (Homo sapiens, UniProt Q8NER1); experiment: Ion channel panel (IonWorks Barracuda): TRPV1; format: cell-based
# T15 construct: host or cells: HEK293 or CHO
# T15 sequence (Q8NER1 whole entry): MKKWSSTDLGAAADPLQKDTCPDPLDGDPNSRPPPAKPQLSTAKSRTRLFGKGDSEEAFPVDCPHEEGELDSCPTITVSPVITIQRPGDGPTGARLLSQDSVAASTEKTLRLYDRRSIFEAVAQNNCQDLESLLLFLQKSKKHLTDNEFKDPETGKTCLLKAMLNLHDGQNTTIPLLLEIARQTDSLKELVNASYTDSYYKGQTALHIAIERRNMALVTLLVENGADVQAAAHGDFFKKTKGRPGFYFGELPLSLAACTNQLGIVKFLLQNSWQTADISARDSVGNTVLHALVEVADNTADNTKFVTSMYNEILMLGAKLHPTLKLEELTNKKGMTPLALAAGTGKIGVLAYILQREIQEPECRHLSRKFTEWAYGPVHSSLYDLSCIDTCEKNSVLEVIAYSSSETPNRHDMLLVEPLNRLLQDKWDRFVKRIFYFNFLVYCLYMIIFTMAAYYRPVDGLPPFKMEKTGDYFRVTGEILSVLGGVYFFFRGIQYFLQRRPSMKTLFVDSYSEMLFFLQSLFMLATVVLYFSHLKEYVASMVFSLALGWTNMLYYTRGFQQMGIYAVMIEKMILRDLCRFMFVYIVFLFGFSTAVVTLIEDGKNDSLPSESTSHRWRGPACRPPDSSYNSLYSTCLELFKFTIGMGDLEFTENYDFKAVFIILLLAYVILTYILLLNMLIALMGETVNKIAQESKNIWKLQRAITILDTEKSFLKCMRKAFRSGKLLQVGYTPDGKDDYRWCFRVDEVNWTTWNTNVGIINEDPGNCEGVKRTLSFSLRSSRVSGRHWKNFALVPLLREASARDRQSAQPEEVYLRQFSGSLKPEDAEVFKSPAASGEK
# Method: as §1, §2, §3, §4
# [1] = peptide at 0.2 μM, 100% = no change, <100% = inhibition
# [2] = peptide at 20 μM, 100% = no change, <100% = inhibition
# [3] = first of two Nav1.5 columns (probably TP1)
# [4] = second of two Nav1.5 columns (probably TP2)
# [5] = first of two Nav1.7 columns (probably TP1)
# [6] = second of two Nav1.7 columns (probably TP2)
# T1 sequence (Q14721 whole entry): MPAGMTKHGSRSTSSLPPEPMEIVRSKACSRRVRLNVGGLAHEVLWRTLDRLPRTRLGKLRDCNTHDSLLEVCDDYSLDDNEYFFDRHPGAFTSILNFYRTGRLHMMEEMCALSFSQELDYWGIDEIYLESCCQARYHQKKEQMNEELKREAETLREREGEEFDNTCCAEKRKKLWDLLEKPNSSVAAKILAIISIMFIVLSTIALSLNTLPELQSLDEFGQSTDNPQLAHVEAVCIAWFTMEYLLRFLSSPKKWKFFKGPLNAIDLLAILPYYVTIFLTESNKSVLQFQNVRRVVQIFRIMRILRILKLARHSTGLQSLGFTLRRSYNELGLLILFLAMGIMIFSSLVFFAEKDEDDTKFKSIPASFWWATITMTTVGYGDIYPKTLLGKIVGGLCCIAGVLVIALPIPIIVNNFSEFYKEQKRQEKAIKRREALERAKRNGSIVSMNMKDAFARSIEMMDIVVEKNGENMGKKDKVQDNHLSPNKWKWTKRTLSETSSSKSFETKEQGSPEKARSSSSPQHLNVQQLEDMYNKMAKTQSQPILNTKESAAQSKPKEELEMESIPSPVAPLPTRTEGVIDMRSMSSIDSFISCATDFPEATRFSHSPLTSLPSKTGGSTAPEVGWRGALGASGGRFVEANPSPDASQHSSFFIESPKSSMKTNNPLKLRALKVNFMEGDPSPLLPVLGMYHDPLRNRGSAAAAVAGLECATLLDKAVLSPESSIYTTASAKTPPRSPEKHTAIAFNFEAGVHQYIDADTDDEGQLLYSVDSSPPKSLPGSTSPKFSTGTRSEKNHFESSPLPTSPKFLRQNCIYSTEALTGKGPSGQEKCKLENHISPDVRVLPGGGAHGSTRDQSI
compound,measurement,setting,value
"COc1ccc(CCN(C)CCCC(C#N)(c2ccc(OC)c(OC)c2)C(C)C)cc1OC (stereo not drawn) [Verapamil, reference compound]",IC50,Kv2.1,78 µM
"CNC1(C)C2CCC(C2)C1(C)C (stereo not drawn) [Mecamylamine, reference compound]",IC50,"α4β2; α4β2, read-out: IC50 of receptor/channel inhibition with reference compound",1.14 µM
20 (GSQIDTNVKCSGSSKCVKICIDRYNTRGAKCINGRCTCYP) [compound 20],Activity of 5HT3a with peptide (percentage of the reference compound),5HT3a,91%
same,"Activity of 5HT3a with peptide, expressed as a percentage of the reference compound",5HT3a,96%
same,"Activity of a3b4 with peptide, expressed as a percentage of the reference compound",α3β4; peptide at 0.2 μM,103%
same,Activity of a3b4 with peptide (percentage of the reference compound),α3β4; peptide at 20 μM,94%
same,"Activity of a4b2 with peptide, expressed as a percentage of the reference compound",α4β2; [1],113%
same,Activity of a4b2 with peptide (percentage of the reference compound),α4β2; [2],92%
same,"Activity of Cav2.1 with peptide, expressed as a percentage of the reference compound",Cav2.1; [1],100%
same,Activity of Cav2.1 with peptide (percentage of the reference compound),Cav2.1; [2],116%
same,"Activity of Cav2.2 with peptide, expressed as a percentage of the reference compound",Cav2.2; [1],110%
same,Activity of Cav2.2 with peptide (percentage of the reference compound),Cav2.2; [2],105%
same,"Activity of Kv2.1 with peptide, expressed as a percentage of the reference compound",Kv2.1; [1],99%
same,Activity of Kv2.1 with peptide (percentage of the reference compound),Kv2.1; [2],97%
same,"Activity of GABA with peptide, expressed as a percentage of the reference compound",GABA; [1],109%
same,Activity of GABA with peptide (percentage of the reference compound),GABA; [2],106%
same,"Activity of Nav1.5 with peptide, expressed as a percentage of the reference compound",Nav1.5; [3],103%
same,"Activity of Nav1.5 with peptide, expressed as a percentage of the reference compound",Nav1.5; [4],101%
same,Activity of Nav1.5 with peptide (percentage of the reference compound),Nav1.5; [3],102%
same,Activity of Nav1.5 with peptide (percentage of the reference compound),Nav1.5; [4],105%
same,"Activity of hERG with peptide, expressed as a percentage of the reference compound",hERG; peptide at 0.2 μM,90%
same,Activity of hERG with peptide (percentage of the reference compound),hERG; peptide at 20 μM,87%
same,"Activity of Kir2.1 with peptide, expressed as a percentage of the reference compound",Kir2.1; [1],89%
same,Activity of Kir2.1 with peptide (percentage of the reference compound),Kir2.1; [2],95%
same,"Activity of Kv1.1 with peptide, expressed as a percentage of the reference compound",Kv1.1; peptide at 0.2 μM,94%
same,Activity of Kv1.1 with peptide (percentage of the reference compound),Kv1.1; peptide at 20 μM,95%
same,"Activity of Kv1.2 with peptide, expressed as a percentage of the reference compound",Kv1.2; peptide at 0.2 μM,115%
same,Activity of Kv1.2 with peptide (percentage of the reference compound),Kv1.2; peptide at 20 μM,74%
same,"Activity of Kv1.3 with peptide, expressed as a percentage of the reference compound",Kv1.3; [1],80%
same,Activity of Kv1.3 with peptide (percentage of the reference compound),Kv1.3; [2],7%
same,"Activity of Nav1.7 with peptide, expressed as a percentage of the reference compound",Nav1.7; [5],92%
same,"Activity of Nav1.7 with peptide, expressed as a percentage of the reference compound",Nav1.7; [6],59%
same,Activity of Nav1.7 with peptide (percentage of the reference compound),Nav1.7; [5],81%
same,Activity of Nav1.7 with peptide (percentage of the reference compound),Nav1.7; [6],95%
same,"Activity of NR2A with peptide, expressed as a percentage of the reference compound",NR2A; peptide at 0.2 μM,98%
same,Activity of NR2A with peptide (percentage of the reference compound),NR2A; peptide at 20 μM,104%
same,"Activity of NR2B with peptide, expressed as a percentage of the reference compound",NR2B; peptide at 0.2 μM,104%
same,Activity of NR2B with peptide (percentage of the reference compound),NR2B; peptide at 20 μM,92%
same,"Activity of TRPA1 with peptide, expressed as a percentage of the reference compound",TRPA1; peptide at 0.2 μM,114%
same,Activity of TRPA1 with peptide (percentage of the reference compound),TRPA1; peptide at 20 μM,114%
same,"Activity of TRPV1 with peptide, expressed as a percentage of the reference compound",TRPV1; [1],109%
same,Activity of TRPV1 with peptide (percentage of the reference compound),TRPV1; [2],102%
"COCC(=O)O[C@]1(CCN(C)CCCc2nc3ccccc3[nH]2)CCc2cc(F)ccc2[C@@H]1C(C)C [Mibefradil dihydrochloride, reference compound]",IC50,"Cav2.1; Cav2.1, read-out: IC50 of receptor/channel inhibition with reference compound",2.12 µM
same,IC50,"Cav2.2; Cav2.2, read-out: IC50 of receptor/channel inhibition with reference compound",8.28 µM
Picrotoxin [reference compound],IC50,"GABA; GABA, read-out: IC50 of receptor/channel inhibition with reference compound",1.72 µM
"[Ba+2].[Cl-].[Cl-] [BaCl2, reference compound]",IC50,"Kir2.1; Kir2.1, read-out: IC50 of receptor/channel inhibition with reference compound",5.25 µM
GSGVPTDVKCRGSPQCIQPCKDAGMRFGKCMNGKCHCTPK [SEQ ID NO: 39],Kv1.3 inhibition,Kv1.3,showed strong Kv1.3 inhibition
"CCN(CC)CC(=O)Nc1c(C)cccc1C [Lidocaine, reference compound]",IC50,Nav1.7; IC50 of receptor/channel inhibition with reference compound,465 µM and 285 µM
GSQFTDVKCTGSKQCWPVCKQMFGKPNGKCMNGKCRCYS [SEQ ID NO: 19],Kv1.3 inhibition,Kv1.3,showed strong Kv1.3 inhibition
"Oc1cc2c(cc1O)CN(C(=S)NCCc1ccc(Cl)cc1)CCC2 [Capsazepine, reference compound]",IC50,TRPV1,0.09 µM
GSECLEIFKACNPSNDQCCKSSKLVCSRKTRWCKYQIG [SEQ ID NO: 31],Activity against Nav1.7 channels,"Nav1.7; 0.2 or 20 μM, FIG. 2","showed activity on tetrodotoxin-sensitive sodium channels (e.g., Nav1.7)"
